Like-named read-outs stand apart in the source and are kept apart here.
Key:
GPC3 [1] = molecular target: T1, GPC3 (UniProt P51654 25-554); test: flow cytometry; HepG2 cells
GPC3 [2] = molecular target: T1, GPC3; test: flow cytometry; HepG2 cells; remark: listed apart in the source

B1: Codrituzumab (antibody, V domains shown)
VH: QVQLVQSGAEVKKPGASVKVSCKASGYTFTDYEMHWVRQAPGQGLEWMGALDPKTGDTAYSQKFKGRVTLTADKSTSTAYMELSSLTSEDTAVYYCTRFYSYTYWGQGTLVTVSS
VL: DVVMTQSPLSLPVTPGEPASISCRSSQSLVHSNRNTYLHWYLQKPGQSPQLLIYKVSNRFSGVPDRFSGSGSGTDFTLKISRVEAEDVGVYYCSQNTHVPPTFGQGTKLEIKR
**Q.** B1 was tested. Which EC50 (GPC3 [1]) did it give?
**A.** Its EC50 is 0.529 nM.

**Q.** What about the EC50 (GPC3 [2]) of the same binder?
**A.** Its EC50 is 0.529 nM.

Source: patent publication US20250134962A1 (published 2025)
